Reference: paper doi:10.1101/2020.12.18.423546 (bioRxiv, 2020)

Key:
[1] = target: the molecule itself; assay: SEC-MALS
[2] = target: the molecule itself; assay: cross-linking

B1: Bax (α2-α5) (human Bax residues D53 to K128 with C62S and C126S mutations) (domain or fragment)
chain: DASTKKLSESLKRIGDELDSNMELQRMIAAVDTDSPREVFFRVAADMFSDGNFNWGRVVALFYFASKLVLKALSTK
[1]
  stoichiometry N: 4
[2]
  stoichiometry N: 2
